± gives the standard deviation of the averaged measurements.
Tested on: ATP
Test: switch fluorescence ratio, 500 uM ATP over buffer (Cy3 cluster intensity, sum of 5 cycles each) (fold (ratio)); higher = stronger signal-on switching upon ATP binding; sequences stand for … in TCGTCGGCAGCGTCAGATGTGTATAAGAGACAGTTTTTTTTTTTTTTTTTTTTTTTTT…TC
Settings: aptamer strand: ATP DNA aptamer (quencher-CACCTGGGGGAGTATTGCGGAGGAAGG + anchor), 100 nM annealed; ATP concentration: 500 uM
Method in brief: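 Cy3-labelled switching-strand clusters on a modified Illumina MiSeq flow-cell were annealed to 100 nM quencher-labelled ATP aptamer and imaged first in selection buffer, then after 15 min with 500 uM ATP at 22 °C. NaOH stripping and re-annealing separated each of five buffer/ATP cycles, and clusters outside 100-1000 RFU were excluded. The fluorescence ratio sums target-cycle Cy3 intensity over buffer-cycle Cy3 intensity per cluster and averages it per switch-domain sequence.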
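Note: ATP exposure 15 min at 22 °C before imaging.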

Row | Sequence | switch fluorescence ratio
1 | CTCAATAGGG | 1.01 ± 0.038
2 | CTCAATTATG | 0.972 ± 0.043
3 | CTCACATTGA | 1.05 ± 0.025
4 | CTCAGGTATC | 1.11 ± 0.012
5 | CTCAGTATTT | 1.01 ± 0.018
6 | CTCAGTGGTA | 1.014 ± 0.0043
7 | CTCATAGCGG | 1.02 ± 0.029
8 | CTCATAGTAG | 0.988 ± 0.016
9 | CTCATCGGGC | 1.06 ± 0.032
10 | CTCATGAAAC | 1.01 ± 0.046
11 | CTCATGACGG | 1.044 ± 0.0061
12 | CTCATGGGGA | 1.04 ± 0.075
13 | CTCATTTGGT | 0.989 ± 0.028
14 | CTCCAGGGGA | 1.5 ± 0.49
15 | CTCCGAGATG | 5.85 ± 0.59
16 | CTCCGGGGGA | 1.33 ± 0.31
17 | CTCCGTTTTT | 2.88 ± 0.62
18 | CTCCTGTGTT | 1.06 ± 0.0073
19 | CTCCTGTTTT | 1.02 ± 0.023
20 | CTCGACAGGG | 0.991 ± 0.019
21 | CTCGGAGAGG | 0.987 ± 0.033
22 | CTCGGAGATT | 1.01 ± 0.018
23 | CTCGGAGGGA | 0.985 ± 0.04
24 | CTCGGCGTCC | 1.142 ± 0.0086
25 | CTCGGCTTGA | 1.06 ± 0.018
26 | CTCGGGATCA | 1.011 ± 0.0028

Row | Sequence | switch fluorescence ratio
27 | CTCGGGGGGC | 0.992 ± 0.063
28 | CTCGGGGTCG | 0.994 ± 0.047
29 | CTCGGGGTTT | 0.998 ± 0.038
30 | CTCGGTATGC | 1.257 ± 0.0034
31 | CTCGGTTAGG | 0.9819 ± 0.0095
32 | CTCGTAGGGG | 1.01 ± 0.039
33 | CTCGTTGAGG | 0.979 ± 0.032
34 | CTCGTTGCGG | 1.06 ± 0.07
35 | CTCGTTTGAT | 1 ± 0.026
36 | CTCTAAGGGT | 1.005 ± 0.0098
37 | CTCTAAGTCG | 0.976 ± 0.011
38 | CTCTGAGCGG | 1.03 ± 0.048
39 | CTCTGAGGGA | 1.01 ± 0.027
40 | CTCTGGGCAT | 2.2 ± 1.9
41 | CTCTGTAGGC | 1.87 ± 0.31
42 | CTCTGTCACG | 1.11 ± 0.074
43 | CTCTTAGGGG | 1.12 ± 0.16
44 | CTCTTGAGCC | 1.01 ± 0.044
45 | CTCTTTGGAC | 1.53 ± 0.89
46 | CTCTTTTGGG | 0.9652 ± 0.0019
47 | CTGAAAGATA | 0.977 ± 0.055
48 | CTGAAATCTG | 0.9971 ± 0.0094
49 | CTGAACTCGA | 1.09 ± 0.046
50 | CTGAAGCTGT | 2.64 ± 1.3
51 | CTGAAGGGAT | 1.05 ± 0.023
52 | CTGAAGGTTG | 0.9737 ± 0.0014

Row | Sequence | switch fluorescence ratio
53 | CTGAATATGA | 1 ± 0.065
54 | CTGAATGC | 1.17 ± 0.035
55 | CTGAATGCAG | 1.069 ± 0.0077
56 | CTGAATGTAG | 1 ± 0.011
57 | CTGAATTAAG | 0.99 ± 0.016
58 | CTGAATTGGT | 0.975 ± 0.012
59 | CTGAATTTCA | 0.9833 ± 0.0017
60 | CTGACATGAT | 1.07 ± 0.04
61 | CTGACCGGAG | 1.24 ± 0.036
62 | CTGACTCCTT | 1.517 ± 0.015
63 | CTGAGATTTT | 0.931 ± 0.018
64 | CTGAGCTTTC | 1.29 ± 0.15
65 | CTGAGGTAAT | 1.94 ± 0.21
66 | CTGATCATTC | 1.04 ± 0.045
67 | CTGATGGCGT | 1 ± 0.0068
68 | CTGATGGGTG | 1.01 ± 0.013
69 | CTGATGGTAG | 1.01 ± 0.015
70 | CTGATGTACG | 1.06 ± 0.12
71 | CTGATGTGTA | 0.965 ± 0.059
72 | CTGATGTTGT | 1.0036 ± 0.00066
73 | CTGATTGTAC | 1.08 ± 0.069
74 | CTGATTGTGT | 0.9718 ± 0.0034
75 | CTGATTTGTA | 1 ± 0.053
76 | CTGCAAGACA | 2.64 ± 0.72
77 | CTGCAGATCG | 1.02 ± 0.06
78 | CTGCAGGGGA | 1.05 ± 0.048

Row | Sequence | switch fluorescence ratio
79 | CTGCATGGGG | 1.062 ± 0.0025
80 | CTGCGTCCAT | 1.068 ± 0.01
81 | CTGCGTCGGA | 1.01 ± 0.032
82 | CTGCGTCTTT | 1.03 ± 0.015
83 | CTGCTAATAT | 1.73 ± 0.14
84 | CTGCTAGGTA | 0.9975 ± 0.0027
85 | CTGCTCGGTG | 0.987 ± 0.062
86 | CTGCTTAAGG | 1.04 ± 0.065
87 | CTGCTTCGAA | 1.06 ± 0.023
88 | CTGGAAATGG | 1.033 ± 0.0095
89 | CTGGACAGTG | 0.956 ± 0.013
90 | CTGGAGGACT | 1.026 ± 0.0098
91 | CTGGATTGAG | 0.956 ± 0.027
92 | CTGGCCAAGT | 0.999 ± 0.02
93 | CTGGCGGAAA | 1.05 ± 0.093
94 | CTGGCGTTCG | 0.983 ± 0.033
95 | CTGGGAAGGG | 0.9281 ± 0.0061
96 | CTGGGAAGTG | 0.978 ± 0.003
97 | CTGGGATGGG | 1.06 ± 0.13
98 | CTGGGGCGTG | 1.02 ± 0.014
99 | CTGGGGGATG | 0.9863 ± 0.0027
100 | CTGGGGGCGC | 0.996 ± 0.03
101 | CTGGGGGGCT | 1.02 ± 0.021
102 | CTGGGGGGTG | 1.02 ± 0.024
103 | CTGGGGGTAT | 1 ± 0.03
104 | CTGGGGGTTA | 0.999 ± 0.059

Row | Sequence | switch fluorescence ratio
105 | CTGGGGTAAT | 1.028 ± 0.0095
106 | CTGGGGTGGC | 1.03 ± 0.046
107 | CTGGGGTTGG | 0.968 ± 0.012
108 | CTGGGTAATA | 1.08 ± 0.047
109 | CTGGGTATTG | 0.971 ± 0.012
110 | CTGGGTCTTT | 0.99 ± 0.015
111 | CTGGGTTGTA | 1 ± 0.012
112 | CTGGTAAGGT | 0.9947 ± 0.0074
113 | CTGGTAGGGT | 1.02 ± 0.02
114 | CTGGTATAGT | 1.03 ± 0.03
115 | CTGGTATGTG | 0.997 ± 0.029
116 | CTGGTCATGT | 0.995 ± 0.05
117 | CTGGTCGAAT | 1 ± 0.017
118 | CTGGTCGCT | 0.976 ± 0.017
119 | CTGGTGGTGG | 0.986 ± 0.075
120 | CTGGTTAAGG | 0.957 ± 0.017
121 | CTGGTTATTT | 1.04 ± 0.076
122 | CTGGTTGGAG | 0.995 ± 0.022
123 | CTGGTTTCGA | 1.017 ± 0.0082
124 | CTGGTTTTCA | 0.988 ± 0.024
125 | CTGGTTTTGC | 0.998 ± 0.022
126 | CTGTAACGAG | 1.008 ± 0.0075
127 | CTGTAAGGAA | 0.989 ± 0.026
128 | CTGTAATGTT | 0.992 ± 0.011
129 | CTGTAGAGAG | 1.01 ± 0.063
130 | CTGTAGGCCC | 1.05 ± 0.097

Row | Sequence | switch fluorescence ratio
131 | CTGTAGGGGG | 1.07 ± 0.13
132 | CTGTAGGTGT | 1.06 ± 0.029
133 | CTGTAGTCTG | 1.11 ± 0.019
134 | CTGTATTAGT | 1.02 ± 0.027
135 | CTGTATTCGC | 1.172 ± 0.0037
136 | CTGTCAGACT | 1.03 ± 0.058
137 | CTGTCTGGGG | 0.9737 ± 0.0033
138 | CTGTCTGGGT | 0.993 ± 0.029
139 | CTGTGACAAT | 1.04 ± 0.029
140 | CTGTGAGGCT | 1 ± 0.042
141 | CTGTGCAAGT | 1.47 ± 0.073
142 | CTGTGCGCCC | 1.09 ± 0.058
143 | CTGTGGTGGG | 0.996 ± 0.051
144 | CTGTGTTGTG | 0.998 ± 0.015
145 | CTGTTAATTG | 1.016 ± 0.0081
146 | CTGTTACGCA | 1.201 ± 0.0046
147 | CTGTTCATGG | 1.02 ± 0.019
148 | CTGTTCATTG | 0.9807 ± 0.0037
149 | CTGTTCTTTG | 0.982 ± 0.019
150 | CTGTTGACTG | 0.983 ± 0.041
151 | CTGTTTAAGG | 0.986 ± 0.013
152 | CTGTTTAGTC | 1.01 ± 0.015
153 | CTGTTTCACA | 0.949 ± 0.046

From the supplement of paper PMC10126150
